# Molecular target: acetylcholine receptor
# Assay: SPR, AchR immobilized on CM5 chip, peptide at 10 µM
row,Binding affinity (RU),Binder
1,52 RU,RWFTK [5mer-146]
2,76 RU,KGYYK [5mer-447]
3,69 RU,KLRQR [5mer-435]
4,73 RU,RLQYK [5mer-139]
5,65 RU,KQQYR [5mer-444]
6,77 RU,KGVSK [5mer-137]
7,57 RU,RQVTK [5mer-440]
8,50 RU,RSQTK [5mer-148]
9,71 RU,RQRCR [5mer-138]
10,52 RU,RQYSR [5mer-142]
11,66 RU,RRYQK [5mer-147]
12,76 RU,RVRSR [5mer-438]
13,60 RU,RVFYK [5mer-436]
14,62 RU,RSFSK [5mer-145]
15,53 RU,KLIRK [5mer-441]
16,74 RU,RQIRK [5mer-448]
17,69 RU,KWRLR [5mer-140]
18,64 RU,KGQQR [5mer-143]
19,77 RU,RLFTR [5mer-445]
20,50 RU,RVRLR [5mer-437]
21,80 RU,RGFTK [5mer-443]
22,61 RU,KVRLR [5mer-442]
23,75 RU,RRIYK [5mer-136]
24,58 RU,KRFSK [5mer-144]
25,65 RU,KRVTR [5mer-439]
26,53 RU,RGLQK [5mer-446]
27,50 RU,RWQQR [5mer-141]

# Molecular target: acetylcholine receptor
# Assay: SPR, receptor immobilised on chip, peptide at 10 uM
row,Binder,Binding affinity (RU)
1,RCNPRR [6mer-2-909],42 RU
2,KKMVKR [6mer-2-899],13 RU
3,KCCFKK [6mer-2-904],30 RU
4,KYKKKR [6mer-2-908],33 RU
5,RYWDRK [6mer-2-901],34 RU
6,KNCWKR [6mer-2-915],29 RU
7,RAPIRR [6mer-2-912],27 RU
8,KTTEKR [6mer-2-916],22 RU
9,RHEHRR [6mer-2-910],21 RU
10,KYCDKK [6mer-2-906],40 RU
11,KAKHKR [6mer-2-919],27 RU
12,KNWMRK [6mer-2-918],35 RU
13,KDDIKK [6mer-2-914],25 RU
14,RFCWRK [6mer-2-917],23 RU
15,KFKNRR [6mer-2-913],25 RU
16,RFSAKK [6mer-2-900],11 RU
17,RPKERR [6mer-2-905],26 RU
18,KPDVRK [6mer-2-902],26 RU
19,RMTIKK [6mer-2-920],26 RU
20,KMSGKR [6mer-2-911],21 RU
21,KKNPKK [6mer-2-903],40 RU
22,RPKAKK [6mer-2-921],22 RU
23,KDNVRR [6mer-2-922],41 RU
24,RTMNRR [6mer-2-907],25 RU

# More lines, now with the values ahead:
row,Binding affinity (RU),Binder
1,28 RU,KFCIRR [6mer-2-928]
2,21 RU,KPPAKK [6mer-2-936]
3,37 RU,RTWIKR [6mer-2-930]
4,33 RU,RDEDKR [6mer-2-941]
5,39 RU,RPNARR [6mer-2-949]
6,35 RU,KPEDKK [6mer-2-944]
7,34 RU,RYSMKR [6mer-2-933]
8,23 RU,RASVKR [6mer-2-925]
9,41 RU,KTNWRK [6mer-2-947]
10,42 RU,KKCERK [6mer-2-945]
11,33 RU,RCCAKK [6mer-2-923]
12,26 RU,KNHMRK [6mer-2-929]
13,22 RU,KKCARR [6mer-2-939]
14,22 RU,KTDKRK [6mer-2-942]
15,28 RU,RFDHKK [6mer-2-924]
16,35 RU,RIPWRR [6mer-2-932]
17,35 RU,RASHRR [6mer-2-937]
18,39 RU,RFNPRK [6mer-2-927]
19,40 RU,RIEHKR [6mer-2-938]
20,31 RU,RPTVKR [6mer-2-926]
21,26 RU,KYKDRR [6mer-2-934]
22,21 RU,KPCEKK [6mer-2-946]
23,22 RU,KKCNKK [6mer-2-935]
24,29 RU,RYCFKR [6mer-2-931]
25,41 RU,KIDHRR [6mer-2-943]
26,41 RU,RNENKK [6mer-2-940]
27,28 RU,RPPFRR [6mer-2-948]
